Laboratory results: publication PMC6702053 (Developmental cell, 2019)

Assays:
Assay in all cases: pull-down
[1] = molecular target: T1, GST-tagged wild-type PI31 (GST-PI31-WT) (Drosophila melanogaster, UniProt Q9V637 1-270)
T1 sequence (looked up): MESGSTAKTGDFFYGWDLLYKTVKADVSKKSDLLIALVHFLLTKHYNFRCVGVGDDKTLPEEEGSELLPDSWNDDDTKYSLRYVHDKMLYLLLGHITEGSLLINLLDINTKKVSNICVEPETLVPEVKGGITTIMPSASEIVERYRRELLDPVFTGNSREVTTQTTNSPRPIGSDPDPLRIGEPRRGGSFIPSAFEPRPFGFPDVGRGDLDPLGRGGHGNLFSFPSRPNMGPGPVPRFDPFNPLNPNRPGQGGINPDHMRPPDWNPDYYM

[2] = molecular target: T2, GST-PI31-S168E (phospho-mimetic mutant) (Drosophila melanogaster, UniProt Q9V637 1-270, S168E)
T2 sequence (looked up): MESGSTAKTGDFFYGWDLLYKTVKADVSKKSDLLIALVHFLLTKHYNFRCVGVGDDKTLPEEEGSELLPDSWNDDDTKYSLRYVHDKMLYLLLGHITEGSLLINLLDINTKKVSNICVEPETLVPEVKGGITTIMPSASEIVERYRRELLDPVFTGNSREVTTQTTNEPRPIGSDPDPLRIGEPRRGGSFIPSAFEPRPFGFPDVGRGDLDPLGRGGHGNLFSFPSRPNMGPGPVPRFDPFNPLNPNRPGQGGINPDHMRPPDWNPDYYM

[3] = molecular target: T3, GST-PI31-S168D (phospho-mimetic mutant) (Drosophila melanogaster, UniProt Q9V637 1-270, S168D)
T3 sequence (looked up): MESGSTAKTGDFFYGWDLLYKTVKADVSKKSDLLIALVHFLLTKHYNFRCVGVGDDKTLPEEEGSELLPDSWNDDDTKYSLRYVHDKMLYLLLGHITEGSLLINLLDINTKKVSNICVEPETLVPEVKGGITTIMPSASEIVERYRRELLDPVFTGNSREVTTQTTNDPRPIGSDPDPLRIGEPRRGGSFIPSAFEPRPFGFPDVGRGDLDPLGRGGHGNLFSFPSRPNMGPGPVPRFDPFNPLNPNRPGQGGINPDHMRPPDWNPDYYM

Measured: binding result

B1: recombinant FLAG-dDYNLL1 expressed in E. coli (natural protein, Drosophila melanogaster, UniProt Q24117 1-89, looked up)
chain: MSDRKAVIKNADMSEEMQQDAVDCATQALEKYNIEKDIAAYIKKEFDKKYNPTWHCIVGRNFGSYVTHETRHFIYFYLGQVAILLFKSG
binds: all assays above
